Data reported in US20190218308A1 (INNATE PHARMA, published 2019).

Assays:
[1] = molecular target: T1, Human CD39-L4, also known as NTPDase5 or ENTPD5 (human, UniProt O75356 25-428); experiment: ELISA on coated recombinant human CD39-L4 (panel huCD39 L4)
T1 construct: Recombinant protein coated in ELISA
T1 sequence: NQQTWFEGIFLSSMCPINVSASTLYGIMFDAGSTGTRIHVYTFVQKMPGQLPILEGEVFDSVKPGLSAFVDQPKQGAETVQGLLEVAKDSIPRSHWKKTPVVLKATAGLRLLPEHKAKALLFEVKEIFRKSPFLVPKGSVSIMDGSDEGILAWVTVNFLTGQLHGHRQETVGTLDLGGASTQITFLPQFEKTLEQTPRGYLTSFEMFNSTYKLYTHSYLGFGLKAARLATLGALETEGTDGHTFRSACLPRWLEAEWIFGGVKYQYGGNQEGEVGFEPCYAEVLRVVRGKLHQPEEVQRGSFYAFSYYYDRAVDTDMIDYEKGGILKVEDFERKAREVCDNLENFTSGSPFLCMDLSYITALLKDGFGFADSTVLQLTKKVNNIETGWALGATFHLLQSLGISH
Procedure: (§1) Wells were washed in TBS Tween 20, and further saturated 2H at RT in TBS Blocking buffer. Dose range concentration of primary antibody was incubated in TBS blocking buffer for 2 h at RT. Wells were washed in TBS Tween 20. […] Optical density was measured on Enspire™ at OD=450.

[2] = molecular target: T2, Human CD39-L2, also known as NTPDase6 or ENTPD6 (human, UniProt O75354 61-484, limits assumed); experiment: ELISA on coated recombinant human CD39-L2 (panel huCD39 L2)
T2 construct: Recombinant protein coated in ELISA
T2 sequence: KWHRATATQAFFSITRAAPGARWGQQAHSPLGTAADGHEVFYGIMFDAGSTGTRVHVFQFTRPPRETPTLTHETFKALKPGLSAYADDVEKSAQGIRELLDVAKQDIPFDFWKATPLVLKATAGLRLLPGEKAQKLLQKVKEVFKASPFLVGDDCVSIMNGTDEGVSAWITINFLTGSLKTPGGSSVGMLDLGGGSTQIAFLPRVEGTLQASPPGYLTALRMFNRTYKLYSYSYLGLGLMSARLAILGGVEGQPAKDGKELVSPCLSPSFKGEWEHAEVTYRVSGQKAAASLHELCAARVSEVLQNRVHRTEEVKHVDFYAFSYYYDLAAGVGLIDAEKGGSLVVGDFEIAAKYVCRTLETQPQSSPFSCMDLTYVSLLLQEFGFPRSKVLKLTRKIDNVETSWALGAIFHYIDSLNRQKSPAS
Procedure: as §1

[3] = molecular target: T3, CD39-M2 extracellular domain recombinant protein (soluble human CD39) (human, UniProt P49961 38-478); experiment: cell-based or functional assay
T3 sequence: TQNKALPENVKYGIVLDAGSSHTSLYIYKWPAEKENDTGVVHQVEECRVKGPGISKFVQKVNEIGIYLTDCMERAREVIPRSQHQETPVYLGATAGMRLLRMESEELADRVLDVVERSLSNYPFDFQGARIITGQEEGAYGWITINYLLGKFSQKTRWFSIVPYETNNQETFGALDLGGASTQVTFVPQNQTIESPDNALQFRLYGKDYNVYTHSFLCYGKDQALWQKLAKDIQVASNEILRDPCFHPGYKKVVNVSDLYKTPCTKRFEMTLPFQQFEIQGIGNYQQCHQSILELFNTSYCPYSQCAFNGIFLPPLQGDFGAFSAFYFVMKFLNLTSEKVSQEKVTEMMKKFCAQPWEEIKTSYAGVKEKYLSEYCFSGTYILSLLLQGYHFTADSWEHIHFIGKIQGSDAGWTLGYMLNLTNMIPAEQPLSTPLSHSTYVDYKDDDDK

[4] = molecular target: T4, human CD39 (NTPDase1, ENTPD1), membrane-bound, on cells (human, UniProt P49961 1-510); experiment: cell-based or functional assay
T4 sequence: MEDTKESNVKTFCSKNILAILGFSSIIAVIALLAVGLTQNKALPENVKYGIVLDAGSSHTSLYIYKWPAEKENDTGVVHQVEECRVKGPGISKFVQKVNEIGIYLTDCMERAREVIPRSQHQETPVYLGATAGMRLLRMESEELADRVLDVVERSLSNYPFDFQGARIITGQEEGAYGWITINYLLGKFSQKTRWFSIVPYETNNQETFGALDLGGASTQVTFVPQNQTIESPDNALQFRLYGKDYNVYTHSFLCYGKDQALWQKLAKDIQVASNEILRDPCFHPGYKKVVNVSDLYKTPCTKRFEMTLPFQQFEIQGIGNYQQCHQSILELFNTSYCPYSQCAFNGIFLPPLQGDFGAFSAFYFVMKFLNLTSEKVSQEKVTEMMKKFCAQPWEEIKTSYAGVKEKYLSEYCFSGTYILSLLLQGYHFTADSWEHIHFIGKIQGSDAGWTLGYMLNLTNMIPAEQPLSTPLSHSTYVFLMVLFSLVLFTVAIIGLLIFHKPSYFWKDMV

murine CD39 on CHO cells = molecular target: T5, murine CD39 on CHO cells (murine, UniProt P55772 1-510); experiment: flow cytometry titration on CHO cells expressing murine CD39 (panel CHO-moCD39)
T5 construct: whole, on cells; also called CHO-moCD39; mouse CD39
T5 sequence (looked up): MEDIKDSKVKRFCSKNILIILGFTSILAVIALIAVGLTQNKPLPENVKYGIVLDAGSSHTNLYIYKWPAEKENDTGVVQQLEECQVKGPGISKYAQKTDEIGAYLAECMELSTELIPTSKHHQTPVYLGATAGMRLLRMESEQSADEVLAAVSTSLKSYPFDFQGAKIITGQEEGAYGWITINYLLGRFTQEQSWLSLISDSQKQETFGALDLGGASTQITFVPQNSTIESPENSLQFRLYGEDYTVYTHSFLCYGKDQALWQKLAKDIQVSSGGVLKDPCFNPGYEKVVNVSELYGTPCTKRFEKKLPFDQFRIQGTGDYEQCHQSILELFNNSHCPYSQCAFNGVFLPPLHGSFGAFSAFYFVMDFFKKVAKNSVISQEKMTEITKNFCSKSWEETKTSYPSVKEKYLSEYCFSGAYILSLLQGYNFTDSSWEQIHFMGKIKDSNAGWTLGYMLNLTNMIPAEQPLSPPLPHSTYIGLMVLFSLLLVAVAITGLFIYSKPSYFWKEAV
Procedure: Cells were incubated with various concentration of unlabeled anti-CD39 antibody from 30 μg/ml to 5×10⁻⁴ μg/ml, for 30 minutes at 4° C. After washes, cells were incubated with Goat anti-mouse H+L labeled secondary antibody for 30 min at 4° C.

B1: antibody I-394 (antibody, human IgG1, kappa, V domains shown)
VH: EVQLQQSGPELVKPGASVKMSCKASGYTFTDYNMHWVKQSHGRTLEWIGYIVPLNGGSTFNQKFKGRATLTVNTSSRTAYMELRSLTSEDSAAYYCARGGTRFAYWGQGTLVTVSA
VL: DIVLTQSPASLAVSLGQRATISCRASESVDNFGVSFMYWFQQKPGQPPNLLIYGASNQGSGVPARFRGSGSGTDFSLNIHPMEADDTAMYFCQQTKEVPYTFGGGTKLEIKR
binding result [1]: no binding (tested: about 50 µg/ml) | binding result [2]: no binding (tested: about 50 µg/ml) | IC50, inhibition of the ATPase activity of soluble CD39 protein [3]: 0.003 µg/mL | IC50 (inhibition of 50% of the enzymatic activity of CD39 expressed by 50,000 Ramos cells) [4]: 0.05 µg/mL | binding result (murine CD39 on CHO cells): no binding (tested: about 30 µg/ml)
